From the nanobody polyreactivity screen of Harvey et al. (2022)

Assay: yeast display, Sf9 membrane polyspecificity reagent, FACS + sequencing; frameworks hold sequencing errors
Outline: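 A nanobody's polyreactivity label depends on the gate it was sorted from. Yeast display cells were stained with 10% biotinylated, detergent-solubilized Sf9 membrane reagent for 1 hour at 4 °C, enriched on streptavidin microbeads and sorted by FACS. The low and high (top ~1%) gates were set on anti-HA fluorescence for expression and streptavidin fluorescence for reagent binding.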

Sequence	polyreactivity (PSR sort gate)
QVQLVESGGGLVQAGGSLRLSCAASGITFYVYTMGWYRQAPGKERELVAAINGSGGSTNYADSVKGRFTISRDNAKNTVFLQMNSLKPEDTAVYYCAADWSLRLYDYWGQGTQVTVSS	low polyreactivity
QVQLVESGGGLVQAGGSLRLSCAASGITFYYNVMGWYRQAPGKERELVASITSGGSTYYADSVKGRFTISRDNAKNTVYLQMNSLKPEDTAVSYCNKDHALYVDFSYDYWGQGTQVTVSS	low polyreactivity
QVQLVESGGGLVQAGGSLRLSCAASGITFYYYAMGWYRQAPGKERELVAAISRSGGSTYYADSVKGRFTISRDNAKNTVYLQMNSLKPEDTAVYYCANRKGGTLYNYWGQGTQVTVSS	high polyreactivity
QVQLVESGGGLVQAGGSLRLSCAASGITFYYYAMGWYRQAPGKERELVARISYGGGRTYYADSVKGRFTISRDNAKNTVYLQMNSLKPEDTAVYYCAARQGYRSYRRYDYWGQGTQVTVSS	high polyreactivity
QVQLVESGGGLVQAGGSLRLSCAASGITFYYYAMGWYRQAPGKERELVASIDNSGGSTYYADSVKGRFTISRDNEKNTVYLQMHSLKPEDTAVYFCAAVSRYYFLGVAFLDDYWGQGTLVTVSS	high polyreactivity
QVQLVESGGGLVQAGGSLRLSCAASGITFYYYTMGWYRQAPGKERELVAGITRGGRTYYADSVKGRFTISRDNAKNTVYLQMNSLKPEDTAVYYCAADYSYIYGFDYWGQGTQVTVSS	low polyreactivity
QVQLVESGGGLVQAGGSLRLSCAASGITIAGYAMGWYRQAPGKERELVAAITIGGRTYYADSVKGRFTISRDNAKNTVYLQMNSLKPVDTAVYYCAAARGFWWYDYWGQGTQVTVSS	high polyreactivity
QVQLVESGGGLVQAGGSLRLSCAASGITIFTYAMGWYRQAPGKERELVAAISGSGGSTYYADSVKGRFTISRDNAKNTVYLQMNSLKPEDTAVYSCAAEYTYGSPYDYWGQGTQVTVSS	low polyreactivity
QVQLVESGGGLVQAGGSLRLSCAASGITIQGYAMGWYRQAPGKERELVAAINDSGSSTYYADSVKGRFTISRDNAKNTFYLQMNSLKPEYTAVYYCAAYLWLWGQGTQVTVSS	low polyreactivity
QVQLVESGGGLVQAGGSLRLSCAASGITIRRYGMGWYRQAPGKERELVATITRDGRTYYADSVKGRFTISRDNAKNTVYLQMNSLKPEDTAVYYCARPARYSYGDGYWGQGTQVTVSS	low polyreactivity
QVQLVESGGGLVQAGGSLRLSCAASGITIRYYAMGWYRQAPGKERELVAAITRRGGSTSYADSVKGRFTISRDNAKNTVYLQMNSLKPEDTAVYYCNARKYTNQATYDYWGQGTQVTVSS	high polyreactivity
QVQLVESGGGLVQAGGSLRLSCAASGITITRYDMGWYRQAPGKERELVAAINWSGGRTYYADSVKGRFTISRDNAKYTVYLQMNSLKPEDTAVYYCNRALKYRRRDYWGQGTQVTVSS	high polyreactivity
QVQLVESGGGLVQAGGSLRLSCAASGITITTYAMGWYRQAPGKERELVAAISSASSTYYADSVKGRFTISRDNAKNTVYLQMNSLKPEDTAVYYCAARVFKKYRPSGRYYYWGQGTQVTVSS	high polyreactivity
QVQLVESGGGLVQAGGSLRLSCAASGITIVNYVMGWYRKAPGKERELVAAISIGGGTYYADSVKGRFTISRDNAKNTVYLQINSLKPEDTAVYYCNASYGGLSFYIGVYVTGYDYWGQGTQVTVSS	low polyreactivity
QVQLVESGGGLVQAGGSLRLSCAASGITIVRYAMGWYRQAPGKERELVAAINRSGGSTYYADSVKGRFTISRDNAKNTVYLQMNSLKPEDTAVYYCAARLYGKYDPPGYYYWGQGTQVTVSS	high polyreactivity
QVQLVESGGGLVQAGGSLRLSCAASGITIYKYAMGWSRQAPGKERELVAVISRSGGSTYYADSVKGRFTISRDNAKNTVYLQMNSLKPEDTAVYYCAADYRYPRQSKYYYWGQGTQVTVSS	high polyreactivity
QVQLVESGGGLVQAGGSLRLSCAASGITIYNYAMGWYRQAPGKERELVAAITRSGGSTYYADSVKGRFTISRDNAKNTVYLQMNSLKPEDTAVYYCATGKYWRYDYWGQGTQVTVSS	high polyreactivity
QVQLVESGGGLVQAGGSLRLSCAASGITIYYNAMGWYRQAPGKARELVAAITQSGGSTFYADSVKGRFTISRDNAKNTVYLQMNSLKPEDTAVYYWGQGTQVTVSS	low polyreactivity
QVQLVESGGGLVQAGGSLRLSCAASGITLDRYDMGWYRQAPGKERELVAAISRSGVRTYYADSVKGRFTISRDNAKNTVYLQMNSLKPEDTAVYYCNKGYARRYASGYDYWGQGTQVTVSS	high polyreactivity
QVQLVESGGGLVQAGGSLRLSCAASGITLDYYAMGWYRQAPGKERELVASITSGGSTNYADSVKGRFTISRDNAKNTVYLQMNSLKPVDTAVYYCARDVNYPGSEGDYWGQGTQVTVSS	low polyreactivity
QVQLVESGGGLVQAGGSLRLSCAASGITLEDYDMGWYRQAPGKERELVAAITSGGSTNYADSVKGRFTISRDNAKNTVYLQMNSMKPEDTAVYYCNADFAIRWWYYFGSGYDYWGQGTQVTVSS	low polyreactivity
QVQLVESGGGLVQAGGSLRLSCAASGITLFGYAMGWYRQAPGKERELVAGISRRGGSTYYADSVKGRFTISRDNAKNTVYLQMNSLKPEDTAVYYCAAVYVQPPATAQHYYYWGQGTQVTVSS	high polyreactivity

Sequence	polyreactivity (PSR sort gate)
QVQLVESGGGLVQAGGSLRLSCAASGITLFYYAMGWYRQAPGKERELVAAISWSGGSTYYADSVKGRFTISRDNAKNTDDLQMNSLKPEDTAVYYCNRVSRAPFDYWGQATQVTVSS	high polyreactivity
QVQLVESGGGLVQAGGSLRLSCAASGITLHEYVMGWYRQAPGKERELVAAISRRGDSTYYADSVKGRFTISRDNAKNTVYLQMNSLKPEDTAVYYCAARWYWYWSSWDYYSWGQGTQVTVSS	low polyreactivity
QVQLVESGGGLVQAGGSLRLSCAASGITLKRYAMGWYRQAPGKERELVAAITGRGGGTNYADSVKGRFTISRDNAKNTVYLQMNSLKPEDTAVYYCTAATYGDYSNLGYGYWGQGTQVTVSS	high polyreactivity
QVQLVESGGGLVQAGGSLRLSCAASGITLNRNAMGWYRQAPGKERELVAAISSGGNTYYADSVKGRFSISRDNAKNTVYLQMNSLKPEDTEVYYCAARQVQAPRSIGFYFWGQGTQVTVSS	high polyreactivity
QVQLVESGGGLVQAGGSLRLSCAASGITLRRNAMGWYRQAPGKERELVARISTTGGSTYYADSVKGRFTISRDNAKNTVYLQMNSLKPEDTAVYYCAARAPLGFWHYDYWGQGTQVTVSS	high polyreactivity
QVQLVESGGGLVQAGGSLRLSCAASGITLSNYAMGWYRQAPVKEREFVAALTRSGDSTYYADSVKGRFTISRDNAQNTVYLQMNSLKPEDTAVYYCPAEEHRYTEVYPTSTTDEYDYRGQGTQVTVSS	low polyreactivity
QVQLVESGGGLVQAGGSLRLSCAASGITLSYNDRGWYRQAHGKEREFVAAITGGGSTYYADSVKGRFTISRDNAKNTVYLQMNSLKPEDTEVYYCAAERWYAWTVLYTVSYGYWGQGTQVTVSS	high polyreactivity
QVQLVESGGGLVQAGGSLRLSCAASGITLTRYAMGWYRQAPGKERELVAAISTGGGSTYYADSVKGRFTISRDNAKNTVYLQMNSLKPEDTAVYYCAARIRFARGYPITRTYDYWGQGTQVTVSS	high polyreactivity
QVQLVESGGGLVQAGGSLRLSCAASGITLVTYAMGWYRQAPGKERELVAAISRSGGRTYYADSVKGRFTISRDNAKNTVDLQMNSLKPEDTAVYYCATRYHVGKDLYGYWGQGTQVTVSS	high polyreactivity
QVQLVESGGGLVQAGGSLRLSCAASGITLYGNAMGWYRQAPGKERELVAAITGRGGSTYYADSVKGRFTISRDNAKNTVYLQMNSLKPEDTAVYYCNKAQSRSQLYGYWGQGTQVTVSS	high polyreactivity
QVQLVESGGGLVQAGGSLRLSCAASGITLYRYAMGWYRPAPGKERELVADISSGGGTTYYADSVKGRFTISRDNAKNTVSLQMNSLKPEDTALYYCAADYGFRYPLYDYWGQGTQVTVSS	low polyreactivity
QVQLVESGGGLVQAGGSLRLSCAASGITLYRYVMGWYRQAPGKERELVADISGRGTSTYYADSVKGRFTISRDNAKNTVYLQMNSLKPEDTAVYYCNAEYTKTGAQREQSFLTRRGPGYDYWGQVTQVTVSS	low polyreactivity
QVQLVESGGGLVQAGGSLRLSCAASGITLYYYAMGWYRQAPGKERELVAAISTSGGTTYYADSVKGRFTISRDNAKYTVYLQMNSLKPEDTAVYYCAARRRAFGSTYNYWGQGTQVTVSS	high polyreactivity
QVQLVESGGGLVQAGGSLRLSCAASGITQYGYAMGWYRQAPGKEREFVAAISRSGDRTYYADSVKGRYTISRDNAKNTVYLQLNSLKPEDTAVYYCNAWRYDYWGQGTQVTVSS	high polyreactivity
QVQLVESGGGLVQAGGSLRLSCAASGITSRYYAMGWYRQAPGKERELVAAITSDGRTNYADSVKGRFTISRDNAKNTVYLQMNSLKPEETAVYYCAVARYPYRYDYWGQGTQVTVSS	high polyreactivity
QVQLVESGGGLVQAGGSLRLSCAASGITSSYAMGWYRQAPGKERELVAAISRGGSTYYADSVKGRFTISRDTAKNTVYLQMNSLKPEDTAVYYCNKRRYPYGWGQGTQVTVSS	high polyreactivity
QVQLVESGGGLVQAGGSLRLSCAASGITYFEYAMGWYRQATGKETELVAGIRFSGSTTYYADSVKGRFTISRDNAKNTVYLQMNSLKPEDTAVYYCNVDYYSGLYDYDSWGQGTQVTVSS	low polyreactivity
QVQLVESGGGLVQAGGSLRLSCAASGITYGYNTMGWYRQAPGKERELVADISRSGGRTYYADSVKARFTISRDNAKNTVYLQMNSLKPEDTAVYYCAAVSNSGHYYYWGQGTQVTVSS	high polyreactivity
QVQLVESGGGLVQAGGSLRLSCAASGITYSYYAMGWYRQAPGKEREFVAAISRTGTSTYYADSVKGRFTISRDNAKNTVYLQMNSLNPEDTADYFCAAVPRHPYHDKYDYWGQGTQVTVSS	high polyreactivity
QVQLVESGGGLVQAGGSLRLSCAASGIWNMGWYRQAPGKERELVAAISWSGASTYYADSVKGRFTISRDNAKNTVYLQMNSLKPEDTAVYYCALGFWHTYGYWGQGTQVTVSS	high polyreactivity
QVQLVESGGGLVQAGGSLRLSCAASGLFFYAYSMGWYRQAPAKERELVAAISGSGGNTYYADSVKGRFTISRDNAKNSVYLQMNSLKQEDTAVYYCAADYTAAYPDSMYYWGQGTQVTVSS	low polyreactivity
